Assay results taken from IntAct's records for PubMed 19805289.

B1: ATP-dependent RNA helicase DBP5 (Saccharomyces cerevisiae), P20449 (parent)
chain: MSDTKRDPADLLASLKIDNEKEDTSEVSTKETVKSQPEKTADSIKPAEKLVPKVEEKKTKQEDSNLISSEYEVKVKLADIQADPNSPLYSAKSFDELGLAPELLKGIYAMKFQKPSKIQERALPLLLHNPPRNMIAQSQSGTGKTAAFSLTMLTRVNPEDASPQAICLAPSRELARQTLEVVQEMGKFTKITSQLIVPDSFEKNKQINAQVIVGTPGTVLDLMRRKLMQLQKIKIFVLDEADNMLDQQGLGDQCIRVKRFLPKDTQLVLFSATFADAVRQYAKKIVPNANTLELQTNEVNVDAIKQLYMDCKNEADKFDVLTELYGLMTIGSSIIFVATKKTANVLYGKLKSEGHEVSILHGDLQTQERDRLIDDFREGRSKVLITTNVLARGIDIPTVSMVVNYDLPTLANGQADPATYIHRIGRTGRFGRKGVAISFVHDKNSFNILSAIQKYFGDIEMTRVPTDDWDEVEKIVKKVLKD
partner: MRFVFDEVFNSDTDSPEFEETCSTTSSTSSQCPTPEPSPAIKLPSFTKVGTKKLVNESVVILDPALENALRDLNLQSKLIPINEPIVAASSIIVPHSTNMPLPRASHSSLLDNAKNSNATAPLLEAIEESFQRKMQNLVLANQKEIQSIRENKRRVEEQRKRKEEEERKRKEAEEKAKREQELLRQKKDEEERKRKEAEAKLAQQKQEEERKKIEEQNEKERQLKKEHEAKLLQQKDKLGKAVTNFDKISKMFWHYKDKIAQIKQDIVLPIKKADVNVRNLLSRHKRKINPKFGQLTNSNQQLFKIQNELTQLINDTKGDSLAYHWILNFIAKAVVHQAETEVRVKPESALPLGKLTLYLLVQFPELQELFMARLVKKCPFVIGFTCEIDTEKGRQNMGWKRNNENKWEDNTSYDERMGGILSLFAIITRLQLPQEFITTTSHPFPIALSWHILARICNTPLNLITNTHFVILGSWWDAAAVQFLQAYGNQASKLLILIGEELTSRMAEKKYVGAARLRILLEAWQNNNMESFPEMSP

Variants of: B1
Conditions: with gle1_yeast GLE1, Q12315

| effect of a mutation on the interaction | Variant |
| --- | --- |
| disrupting interaction | MSDTKRDPADLLASLKIDNEKEDTSEVSTKETVKSQPEKTADSIKPAEKLVPKVEEKKTKQEDSNLISSEYEVKVKLADIQADPNSPLYSAKSFDELGLAPELLKGIYAMKFQKPSKIQERALPLLLHNPPRNMIAQSQSGTGKTAAFSLTMLTRVNPEDASPQAICLAPSRELARQTLEVVQEMGKFTKITSQLIVPDSFEKNKQINAQVIVGTPGTVLDLMRRKLMQLQKIKIFVLDEADNMLDQQGLGDQCIRVKRFLPKDTQLVLFSATFADAVRQYAKKIVPNANTLELQTNEVNVDAIKQLYMDCKNEADKFDVLTELYGLMTIGSSIIFVATKKTANVLYGKLKSEGHEVSILHGDLQTQERDRLIDDFREGRSKVLITTNVLARGIDIPTVSMVVNYDLPTLANGQADPATYIHRIGRTGRFGRKGVAISFVHDKNSFNILSAIQKYFGDIEMTRVPTDDWDEVKKIVKKVLKD [E473K] |
| decreasing interaction | MSDTKRDPADLLASLKIDNEKEDTSEVSTKETVKSQPEKTADSIKPAEKLVPKVEEKKTKQEDSNLISSEYEVKVKLADIQADPNSPLYSAKSFDELGLAPELLKGIYAMKFQKPSKIQERALPLLLHNPPRNMIAQSQSGTGKTAAFSLTMLTRVNPEDASPQAICLAPSRELARQTLEVVQEMGKFTKITSQLIVPDSFEKNKQINAQVIVGTPGTVLDLMRRKLMQLQKIKIFVLDEADNMLDQQGLGDQCIRVKRFLPKDTQLVLFSATFADAVRQYAKKIVPNANTLELQTNEVNVDAIKQLYMDCKNEADKFDVLTELYGLMTIGSSIIFVATKKTANVLYGKLKSEGHEVSILHGDLQTQERDRLIDDFREGRSKVLITTNVLARGIDIPTVSMVVNYDLPTLANGQADPATYIHRIGRTGRFGRKGVAISFVHDKNSFNILSAIQKYFGDIEMTRVPTDDWDEVAKIVKKVLKD [E473A] |
| disrupting interaction | MSDTKRDPADLLASLKIDNEKEDTSEVSTKETVKSQPEKTADSIKPAEKLVPKVEEKKTKQEDSNLISSEYEVKVKLADIQADPNSPLYSAKSFDELGLAPELLKGIYAMKFQKPSKIQERALPLLLHNPPRNMIAQSQSGTGKTAAFSLTMLTRVNPEDASPQAICLAPSRELARQTLEVVQEMGKFTKITSQLIVPDSFEKNKQINAQVIVGTPGTVLDLMRRKLMQLQKIKIFVLDEADNMLDQQGLGDQCIRVKRFLPKDTQLVLFSATFADAVRQYAKKIVPNANTLELQTNEVNVDAIKQLYMDCKNEADKFDVLTELYGLMTIGSSIIFVATKKTANVLYGKLKSEGHEVSILHGDLQTQERDRLIDDFREGRSEVLITTNVLARGIDIPTVSMVVNYDLPTLANGQADPATYIHRIGRTGRFGRKGVAISFVHDKNSFNILSAIQKYFGDIEMTRVPTDDWDEVEKIVKKVLKD [K382E] |
| disrupting interaction | MSDTKRDPADLLASLKIDNEKEDTSEVSTKETVKSQPEKTADSIKPAEKLVPKVEEKKTKQEDSNLISSEYEVKVKLADIQADPNSPLYSAKSFDELGLAPELLKGIYAMKFQKPSKIQERALPLLLHNPPRNMIAQSQSGTGKTAAFSLTMLTRVNPEDASPQAICLAPSRELARQTLEVVQEMGKFTKITSQLIVPDSFEKNKQINAQVIVGTPGTVLDLMRRKLMQLQKIKIFVLDEADNMLDQQGLGDQCIRVKRFLPKDTQLVLFSATFADAVRQYAKKIVPNANTLELQTNEVNVDAIKQLYMDCKNEADKFDVLTKLYGLMTIGSSIIFVATKKTANVLYGKLKSEGHEVSILHGDLQTQERDRLIDDFREGRSKVLITTNVLARGIDIPTVSMVVNYDLPTLANGQADPATYIHRIGRTGRFGRKGVAISFVHDKNSFNILSAIQKYFGDIEMTRVPTDDWDEVEKIVKKVLKD [E323K] |
| decreasing interaction | MSDTKRDPADLLASLKIDNEKEDTSEVSTKETVKSQPEKTADSIKPAEKLVPKVEEKKTKQEDSNLISSEYEVKVKLADIQADPNSPLYSAKSFDELGLAPELLKGIYAMKFQKPSKIQERALPLLLHNPPRNMIAQSQSGTGKTAAFSLTMLTRVNPEDASPQAICLAPSRELARQTLEVVQEMGKFTKITSQLIVPDSFEKNKQINAQVIVGTPGTVLDLMRRKLMQLQKIKIFVLDEADNMLDQQGLGDQCIRVKRFLPKDTQLVLFSATFADAVRQYAKKIVPNANTLELQTNEVNVDAIKQLYMDCKNEADKFDVLTELYGLMAIGSSIIFVATKKTANVLYGKLKSEGHEVSILHGDLQTQERDRLIDDFREGRSKVLITTNVLARGIDIPTVSMVVNYDLPTLANGQADPATYIHRIGRTGRFGRKGVAISFVHDKNSFNILSAIQKYFGDIEMTRVPTDDWDEVEKIVKKVLKD [T329A] |
| decreasing interaction | MSDTKRDPADLLASLKIDNEKEDTSEVSTKETVKSQPEKTADSIKPAEKLVPKVEEKKTKQEDSNLISSEYEVKVKLADIQADPNSPLYSAKSFDELGLAPELLKGIYAMKFQKPSKIQERALPLLLHNPPRNMIAQSQSGTGKTAAFSLTMLTRVNPEDASPQAICLAPSRELARQTLEVVQEMGKFTKITSQLIVPDSFEKNKQINAQVIVGTPGTVLDLMRRKLMQLQKIKIFVLDEADNMLDQQGLGDQCIRVKRFLPKDTQLVLFSATFADAVRQYAKKIVPNANTLELQTNEVNVDAIKQLYMDCKNEADKFDVLTELYGLMTIGSSIIFVATKKTANVLYGKLKSKGHEVSILHGDLQTQERDRLIDDFREGRSKVLITTNVLARGIDIPTVSMVVNYDLPTLANGQADPATYIHRIGRTGRFGRKGVAISFVHDKNSFNILSAIQKYFGDIEMTRVPTDDWDEVEKIVKKVLKD [E353K] |

Variants of: B1
Conditions: with gle1_yeast GLE1, Q12315
Remark: another data set of the same source

| effect of a mutation on the interaction | Variant |
| --- | --- |
| decreasing interaction | MSDTKRDPADLLASLKIDNEKEDTSEVSTKETVKSQPEKTADSIKPAEKLVPKVEEKKTKQEDSNLISSEYEVKVKLADIQADPNSPLYSAKSFDELGLAPELLKGIYAMKFQKPSKIQERALPLLLHNPPRNMIAQSQSGTGKTAAFSLTMLTRVNPEDASPQAICLAPSRELARQTLEVVQEMGKFTKITSQLIVPDSFEKNKQINAQVIVGTPGTVLDLMRRKLMQLQKIKIFVLDEADNMLDQQGLGDQCIRVKRFLPKDTQLVLFSATFADAVRQYAKKIVPNANTLELQTNEVNVDAIKQLYMDCKNEADKFDVLTELYGLMTIGSSIIFVATKKTANVLYGKLKSEGHEVSILHGDLQTQERDRLIDDFREGRSKVLITTNVLARGIDIPTVSMVVNYDLPTLANGQADPATYIHRIGRTGRFGRKGVAISFVHDKNSFNILSAIQKYFGDIEMTRVPTDDWDEVKKIVKKVLKD [E473K] |
| decreasing interaction | MSDTKRDPADLLASLKIDNEKEDTSEVSTKETVKSQPEKTADSIKPAEKLVPKVEEKKTKQEDSNLISSEYEVKVKLADIQADPNSPLYSAKSFDELGLAPELLKGIYAMKFQKPSKIQERALPLLLHNPPRNMIAQSQSGTGKTAAFSLTMLTRVNPEDASPQAICLAPSRELARQTLEVVQEMGKFTKITSQLIVPDSFEKNKQINAQVIVGTPGTVLDLMRRKLMQLQKIKIFVLDEADNMLDQQGLGDQCIRVKRFLPKDTQLVLFSATFADAVRQYAKKIVPNANTLELQTNEVNVDAIKQLYMDCKNEADKFDVLTELYGLMTIGSSIIFVATKKTANVLYGKLKSEGHEVSILHGDLQTQERDRLIDDFREGRSEVLITTNVLARGIDIPTVSMVVNYDLPTLANGQADPATYIHRIGRTGRFGRKGVAISFVHDKNSFNILSAIQKYFGDIEMTRVPTDDWDEVEKIVKKVLKD [K382E] |
| decreasing interaction | MSDTKRDPADLLASLKIDNEKEDTSEVSTKETVKSQPEKTADSIKPAEKLVPKVEEKKTKQEDSNLISSEYEVKVKLADIQADPNSPLYSAKSFDELGLAPELLKGIYAMKFQKPSKIQERALPLLLHNPPRNMIAQSQSGTGKTAAFSLTMLTRVNPEDASPQAICLAPSRELARQTLEVVQEMGKFTKITSQLIVPDSFEKNKQINAQVIVGTPGTVLDLMRRKLMQLQKIKIFVLDEADNMLDQQGLGDQCIRVKRFLPKDTQLVLFSATFADAVRQYAKKIVPNANTLELQTNEVNVDAIKQLYMDCKNEADKFDVLTKLYGLMTIGSSIIFVATKKTANVLYGKLKSEGHEVSILHGDLQTQERDRLIDDFREGRSKVLITTNVLARGIDIPTVSMVVNYDLPTLANGQADPATYIHRIGRTGRFGRKGVAISFVHDKNSFNILSAIQKYFGDIEMTRVPTDDWDEVEKIVKKVLKD [E323K] |
